Experimental data as given in publication PMC9544323, “Abscisic acid regulates stomatal production by imprinting a SnRK2 kinase–mediated phosphocode on the master regulator [sequence]” (Science Advances, 2022).

Molecular target: T1, GST-SPCH (glutathione S-transferase-tagged …) (Arabidopsis thaliana, UniProt Q700C7 1-364)
T1 construct: cDNA cloned into pDEST15; cDNA recombined into pDEST15; also called GST-tagged SPCH; source: E. coli ArcticExpress (DE3), purified (Pierce Glutathione Agarose)
T1 sequence (looked up): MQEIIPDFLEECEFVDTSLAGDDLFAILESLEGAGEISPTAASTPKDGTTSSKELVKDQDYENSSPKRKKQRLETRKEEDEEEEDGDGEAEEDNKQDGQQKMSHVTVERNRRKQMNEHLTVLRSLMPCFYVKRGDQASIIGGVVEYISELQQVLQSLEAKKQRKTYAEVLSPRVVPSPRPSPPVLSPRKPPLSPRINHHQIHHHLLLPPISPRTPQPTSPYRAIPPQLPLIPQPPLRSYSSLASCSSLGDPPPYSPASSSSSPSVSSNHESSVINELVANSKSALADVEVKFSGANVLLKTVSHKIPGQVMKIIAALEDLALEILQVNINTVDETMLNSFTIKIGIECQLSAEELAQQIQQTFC
Assay: pull-down; GST-SPCH or GST (1 ug) on Pierce Glutathione Agarose; MBP-SnRK2.2/2.3/2.6 or MBP alone (1 ug) added; 4 C, 2 hours; washed five times with 20 mM tris-HCl pH 7.5, 300 mM NaCl, 0.1% NP-40, 1 mM EDTA; blot with anti-MBP
Conditions: both partners purified

Row | Binder | binding result
1 | MBP-SnRK2.2 (maltose-binding protein-tagged SnRK2.2) (enzyme, Arabidopsis thaliana, UniProt Q39192 1-362, looked up, SnRK2.2/SRK2D, subclass III SNF1-related protein kinase 2, Arabidopsis thaliana; cDNA cloned into pETG-40A; also called SRK2D; source: E. coli ArcticExpress (DE3), purified (MBP amylose resin)) MDPATNSPIMPIDLPIMHDSDRYDFVKDIGSGNFGVARLMTDRVTKELVAVKYIERGEKIDENVQREIINHRSLRHPNIVRFKEVILTPSHLAIVMEYAAGGELYERICNAGRFSEDEARFFFQQLISGVSYCHAMQICHRDLKLENTLLDGSPAPRLKICDFGYSKSSVLHSQPKSTVGTPAYIAPEILLRQEYDGKLADVWSCGVTLYVMLVGAYPFEDPQEPRDYRKTIQRILSVTYSIPEDLHLSPECRHLISRIFVADPATRITIPEITSDKWFLKNLPGDLMDENRMGSQFQEPEQPMQSLDTIMQIISEATIPTVRNRCLDDFMADNLDLDDDMDDFDSESEIDVDSSGEIVYAL | binds
2 | MBP-SnRK2.3 (maltose-binding protein-tagged SnRK2.3) (enzyme, Arabidopsis thaliana, UniProt Q39193 1-361, looked up, SnRK2.3/SRK2I, subclass III SNF1-related protein kinase 2, Arabidopsis thaliana; cDNA cloned into pETG-40A; also called SRK2I; source: E. coli ArcticExpress (DE3), purified (MBP amylose resin)) MDRAPVTTGPLDMPIMHDSDRYDFVKDIGSGNFGVARLMRDKLTKELVAVKYIERGDKIDENVQREIINHRSLRHPNIVRFKEVILTPTHLAIIMEYASGGELYERICNAGRFSEDEARFFFQQLLSGVSYCHSMQICHRDLKLENTLLDGSPAPRLKICDFGYSKSSVLHSQPKSTVGTPAYIAPEVLLRQEYDGKIADVWSCGVTLYVMLVGAYPFEDPEEPRDYRKTIQRILSVKYSIPDDIRISPECCHLISRIFVADPATRISIPEIKTHSWFLKNLPADLMNESNTGSQFQEPEQPMQSLDTIMQIISEATIPAVRNRCLDDFMTDNLDLDDDMDDFDSESEIDIDSSGEIVYAL | binds
3 | MBP-SnRK2.6 (maltose-binding protein-tagged SnRK2.6) (enzyme, Arabidopsis thaliana, UniProt Q940H6 1-362, looked up, SnRK2.6/SRK2E/OST1, subclass III SNF1-related protein kinase 2, Arabidopsis thaliana; cDNA cloned into pETG-40A; also called SRK2E; OPEN STOMATA 1; source: E. coli ArcticExpress (DE3), purified (MBP amylose resin)) MDRPAVSGPMDLPIMHDSDRYELVKDIGSGNFGVARLMRDKQSNELVAVKYIERGEKIDENVKREIINHRSLRHPNIVRFKEVILTPTHLAIVMEYASGGELFERICNAGRFSEDEARFFFQQLISGVSYCHAMQVCHRDLKLENTLLDGSPAPRLKICDFGYSKSSVLHSQPKSTVGTPAYIAPEVLLKKEYDGKVADVWSCGVTLYVMLVGAYPFEDPEEPKNFRKTIHRILNVQYAIPDYVHISPECRHLISRIFVADPAKRISIPEIRNHEWFLKNLPADLMNDNTMTTQFDESDQPGQSIEEIMQIIAEATVPPAGTQNLNHYLTGSLDIDDDMEEDLESDLDDLDIDSSGEIVYAM | binds
